The target of this assay is purified human recombinant HGF (human, UniProt P14210 32-728). The assay can be described thus: far-Western, overlay or dot blot.
purified human recombinant HGF, sequence (P14210 32-728): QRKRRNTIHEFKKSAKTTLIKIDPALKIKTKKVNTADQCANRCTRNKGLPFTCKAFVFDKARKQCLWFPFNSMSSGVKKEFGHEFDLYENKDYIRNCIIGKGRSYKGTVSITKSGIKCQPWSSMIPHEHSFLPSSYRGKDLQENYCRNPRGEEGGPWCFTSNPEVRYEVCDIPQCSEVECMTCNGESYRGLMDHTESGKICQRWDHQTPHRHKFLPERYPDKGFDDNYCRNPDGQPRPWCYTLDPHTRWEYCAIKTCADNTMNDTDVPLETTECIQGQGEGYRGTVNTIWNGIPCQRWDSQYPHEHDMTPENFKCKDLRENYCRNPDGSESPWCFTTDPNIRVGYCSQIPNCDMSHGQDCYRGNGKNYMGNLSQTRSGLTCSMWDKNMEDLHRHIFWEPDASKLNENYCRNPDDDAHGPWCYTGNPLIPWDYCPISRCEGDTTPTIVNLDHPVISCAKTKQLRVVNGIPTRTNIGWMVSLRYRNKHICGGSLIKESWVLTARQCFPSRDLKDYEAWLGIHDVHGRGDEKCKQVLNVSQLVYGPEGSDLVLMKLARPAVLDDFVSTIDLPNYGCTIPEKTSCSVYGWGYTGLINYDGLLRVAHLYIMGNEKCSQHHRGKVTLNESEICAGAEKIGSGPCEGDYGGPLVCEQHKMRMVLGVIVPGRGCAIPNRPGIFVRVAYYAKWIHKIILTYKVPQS

B1: NEPHRIN-P1 peptide (peptide)
peptide: PDITILLSGQTISDISANVNEGSQQKL
As to B1, the binding result was “binds”.

B2: NEPH1-P1 peptide (peptide)
peptide: QEGERVVFTCQATANPEIL
On to B2, for which the binding result is on record as “binds”.
